B1: HESX1 (parent)
chain: QKKDCVPLMKPHRPWADTCSSSGK

Variants of: B1
Test: protein stability index of a GFP-peptide fusion (GPS, HEK-293T) (PSI 1-6); higher = more stable
Settings: c terminus: a fixed tail appended
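Also: lentivirally expressed fusions sorted by FACS into six bins by GFP to DsRed ratio, PSI derived from sequencing read proportions per bin multiplied by bin number.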

Variant | protein stability index
K24A | 3.7
K24L | 1.78
K24Y | 1.98
K24I | 2.51
K24P | 3.18
K24H | 2.46
K24N | 2.97
K24W | 1.98
K24F | 2.56
K24D | 3.22
K24Q | 3.57
K24V | 2.55
K24S | 2.23
K24E | 2.28
K24M | 2.05
K24T | 2.85
K3W | 4.36
K3I | 3.01
K3M | 3.53
K3P | 3.62
K3L | 3.42
K3Q | 3.06
K3S | 3.69
K3D | 3.81

Variant | protein stability index
K3Y | 3.06
K3R | 2.92
K3G | 3.2
K3F | 4.05
K3C | 3.27
P11H | 3.51
P11Y | 2.55
P11A | 3.29
P11G | 3.87
P11I | 3.42
P11W | 3.16
P11R | 3.46
P11E | 3.1
P11N | 3.48
P11K | 3.42
P11D | 3.96
P14N | 2.72
P14V | 2.23
P14G | 3.96
P14C | 2.36
P14K | 2.81
P14I | 3.26
P14M | 2.84
P14L | 3.06

Variant | protein stability index
P14Q | 3.88
P14Y | 2.98
P7D | 3.93
P7L | 2.68
P7V | 2.56
P7Y | 2.78
P7R | 2.46
P7H | 2.92
P7Q | 3.34
P7F | 2.07
P7K | 2.8
P7M | 3.17
P7W | 1.76
P7S | 3.38
P7T | 2.7
P7I | 2.44
P7N | 3.07
G23N | 3.13
G23I | 2.76
G23V | 2.33
G23M | 3.08
G23Y | 3.15
G23C | 2.45
G23S | 3.32

Variant | protein stability index
G23H | 2.62
G23K | 4.08
D4T | 2.49
D4V | 2.17
D4P | 2.86
D4I | 3.25
D4R | 2.43
D4Q | 3.54
D4L | 2.38
D4F | 2.61
D4W | 2.39
D4H | 3.08
D4S | 2.92
D4Y | 2.72
D4N | 3.24
D4K | 2.89
K2D | 4.3
K2P | 3.89
K2M | 3.24
K2E | 4.16
K2C | 4.18
K2N | 3.33
K2V | 3.12
K2T | 3.67

Variant | protein stability index
K2W | 2.88
K2A | 3.27
K2S | 3.06
K2Y | 2.51
K2H | 3.4
K2G | 3.06
K2L | 3.3
K2I | 3.17
S20E | 3.47
S20G | 2.38
S20L | 2.61
S20V | 3.84
S20Y | 2.31
S20D | 3.32
S20T | 2.96
S20P | 3.79
S20H | 3.24
S20F | 2.3
S20I | 2.98
S20R | 3
S20K | 3.83
S20Q | 3.05
S22H | 3.96
S22V | 2.78

Variant | protein stability index
S22F | 2.74
S22M | 3.43
S22T | 3.08
S22P | 3.68
S22E | 3.13
S22A | 2.95
S22C | 2.94
S22N | 2.89
S22W | 2.12
S22Y | 3.29
S22I | 3.13
S22R | 3.3
M9Y | 3.2
M9P | 3.51
M9W | 3
M9N | 3.58
M9C | 3.76
M9A | 3.69
M9L | 3.41
M9H | 3.89
H12R | 4.82
H12D | 4.49
H12P | 4.01
H12E | 4.44

Variant | protein stability index
H12F | 3.25
H12L | 3.91
H12I | 3.07
H12K | 3.73
H12A | 4
H12W | 2.29
H12G | 3.98
H12T | 3.08
H12Y | 3.29
R13V | 3.11
R13K | 3.5
R13C | 3.26
R13T | 3.33
R13H | 3.6
R13Y | 3.64
R13M | 3.06
R13L | 3.4
R13F | 3.75
R13G | 4.21
R13N | 4.15
R13E | 4.97
A16F | 3.44
A16E | 3.9
A16W | 3.39

Variant | protein stability index
A16P | 3.96
A16H | 3.98
A16N | 4.2
A16T | 3.76
A16K | 3.96
A16M | 4.02
A16I | 3.34
A16Y | 3.49
A16C | 3.72
A16V | 2.46
A16D | 4.66
A16S | 3.72
A16L | 3.75
A16R | 3.45
L8P | 3.49
L8H | 2.31
L8T | 2.82
L8K | 3.73
L8Y | 3.78
L8M | 3
L8R | 2.59
L8G | 3.18
L8A | 3.29
L8I | 2.82

Variant | protein stability index
L8S | 3.86
L8N | 3.19
L8W | 3.47
L8C | 2.7
L8F | 3.14
D17T | 3.06
D17F | 3.07
D17C | 2.81
D17N | 3.22
D17R | 3.46
D17Y | 3.17
D17H | 3.71
D17E | 3.53
D17M | 3.36
D17W | 2.78
D17P | 3.6
D17G | 3.45
V6Y | 3.01
V6W | 3.08
V6M | 3.05
V6L | 2.92
V6D | 3.11
V6R | 2.88
V6H | 3.17

Variant | protein stability index
V6F | 3.28
V6C | 3.1
V6T | 3.92
V6P | 3.31
V6N | 3.98
V6I | 3.03
V6Q | 2.98
V6E | 4.38
V6S | 3.4
V6G | 3.46
V6K | 2.57
C5A | 3.08
C5S | 3.4
C5W | 3.34
C5Y | 3.38
C5M | 3.19
C5V | 3.78
C5P | 3.17
C5H | 3.83
C5D | 3.57
C5T | 3.2
C5K | 2.81
C5N | 3.06
C5L | 3.59

Variant | protein stability index
C5E | 4.15
T18R | 2.69
T18L | 2.24
T18G | 3.69
T18V | 1.9
T18S | 3.28
T18H | 2.13
T18K | 4.01
T18P | 4.02
T18I | 1.57
T18Y | 2.25
T18Q | 3.36
T18E | 4.29
T18D | 3.96
T18C | 3.15
T18F | 2.35
T18M | 2.44
T18N | 3.75
K10N | 4.25
K10S | 3.74
K10T | 3.35
K10W | 2.52
K10Q | 4.19
K10Y | 3.45

Variant | protein stability index
K10G | 3.47
K10L | 3.58
K10H | 3.79
K10V | 3.94
K10M | 2.92
K10R | 3.48
K10I | 3.7
K10C | 3.88
S21N | 3.4
S21W | 2.79
S21Y | 2.32
S21Q | 3.75
S21P | 3.58
S21E | 3.86
S21I | 2.69
S21L | 3.18
S21G | 3.92
S21A | 3.61
S21K | 3.68
S21R | 2.56
S21H | 2.88
S21D | 3.24
S21V | 3.15
S21F | 2.44

Variant | protein stability index
S21M | 2.58
S21T | 3.38
Q1P | 3.66
Q1N | 3.22
Q1G | 4.01
Q1I | 3.46
Q1K | 3.06
Q1R | 3.74
Q1E | 3.98
Q1A | 2.76
Q1C | 2.94
Q1H | 3.86
Q1F | 3.17
Q1W | 2.69
Q1D | 3.95
Q1S | 3.49
C19A | 4.07
C19Q | 4.03
C19Y | 3.25
C19I | 2.45
C19P | 4.37
C19T | 3.82
C19F | 2.66
C19L | 3.13

Variant | protein stability index
C19W | 2.47
C19N | 4.83
C19S | 4.36
C19R | 4.08
C19M | 4.19
C19K | 4.47
C19V | 2.17
C19D | 3.9
W15P | 4.35
W15M | 4.57
W15H | 4.64
W15A | 4.62
W15E | 5.37
W15K | 4.92
W15L | 4.66
W15T | 5.26
W15S | 4.8
W15D | 4.81
W15G | 4.96
W15Y | 4.39
W15C | 4.02
W15Q | 4.79
